Reference: paper PMC5983854, “Structure-guided approach to site-specific fluorophore labeling of the lac repressor LacI” (PLoS ONE, 2018)

Tests used:
[1] = test system: LacIDimer-S28C (Escherichia coli); assay: EMSA; conditions: apparent Kd; 3 mM MgCl2; EMSA: 1 nM DNA, 0.5-100 nM LacI, 10 mM Tris pH 7.5, 50 mM NaCl, 3 mM MgCl2, 1 mM TCEP, 0.1 mg/mL BSA, 5% glycerol, room temperature 1 h; TIRF: 100 mM phosphate
[2] = biological target: the molecule itself; assay: SEC; analytical gel filtration on HiLoad 16/600 Superdex 200, 0.2 mL/min, buffer C (200 mM Tris-HCl pH 7.5, 200 mM KCl, 1 mM EDTA, 0.5 mM TCEP); column calibrated with proteins of known molecular weight; dimer to monomers

Molecule | Kd [1] | stoichiometry N [2]
5'-Cy5 O1 operator dsDNA | 5.63 nM | –
LacI^ΔCterm (lactose operon repressor LacI, tetramerization helix residues 339-360 replaced with a 6xHis tag) (domain or fragment, E. coli, UniProt P03023 1-338, looked up, Lactose operon repressor LacI, E. coli, 360 amino acid monomer; the native 22 C-terminal amino acids (tetramerization helix, residues 339-360) are replaced with a 6xHis tag, the rest is wild type; only the replaced stretch 339-360 is printed; source: E. coli TOP10 (pBAD24, arabinose-induced), purified (HisTrap HP, Superdex 200 SEC); not shown: His6, C-terminal, kept) MKPVTLYDVAEYAGVSYQTVSRVVNQASHVSAKTREKVEAAMAELNYIPNRVAQQLAGKQSLLIGVATSSLALHAPSQIVAAIKSRADQLGASVVVSMVERSGVEACKAAVHNLLAQRVSGLIINYPLDDQDAIAVEAACTNVPALFLDVSDQTPINSIIFSHEDGTRLGVEHLVALGHQQIALLAGPLSSVSARLRLAGWHKYLTRNQIQPIAEREGDWSAMSGFQQTMQMLNEGIVPTAMLVANDQMALGAMRAITESGLRVGADISVVGYDDTEDSSCYIPPLTTIKQDFRLLGQTSVDRLLQLSQGQAVKGNQLLPVSLVKRKTTLAPNTQTAS | – | 2
LacI^Dimer (LacI^ΔCterm with C107A, C140A; Cys281 retained) (domain or fragment, E. coli, UniProt P03023 1-338, looked up, Lactose operon repressor LacI, E. coli; residues 339-360 replaced with a 6xHis tag; Cys107 and Cys140 replaced with alanine, Cys281 retained; source: E. coli TOP10 (pBAD24, arabinose-induced), purified (HisTrap HP, Superdex 200 SEC); not shown: His6, C-terminal, kept) MKPVTLYDVAEYAGVSYQTVSRVVNQASHVSAKTREKVEAAMAELNYIPNRVAQQLAGKQSLLIGVATSSLALHAPSQIVAAIKSRADQLGASVVVSMVERSGVEAAKAAVHNLLAQRVSGLIINYPLDDQDAIAVEAAATNVPALFLDVSDQTPINSIIFSHEDGTRLGVEHLVALGHQQIALLAGPLSSVSARLRLAGWHKYLTRNQIQPIAEREGDWSAMSGFQQTMQMLNEGIVPTAMLVANDQMALGAMRAITESGLRVGADISVVGYDDTEDSSCYIPPLTTIKQDFRLLGQTSVDRLLQLSQGQAVKGNQLLPVSLVKRKTTLAPNTQTAS | – | 2
